These results are taken from US20180203016A1 (UCB, published 2018).

The target in assay [1] is TNFα (fused trimer) - AVI Tag, biotinylated, in the presence of compound (3). Nature of the assay: TR-FRET, 7.5 nM proteins, compound (3) up to 25 µM; partial loss of receptor binding. A general note: Time-resolved FRET reads energy transfer from a long-lived donor to a nearby acceptor.
Assay [2] has as its target TNFα (fused trimer) - AVI Tag, biotinylated, in the presence of compound (4). Nature of the assay: TR-FRET, 7.5 nM proteins, compound (4) up to 25 µM; partial loss of receptor binding.
Assay [3] addresses T1, soluble form of mouse TNFα (VC 6535) in complex with compound (1) (mouse, UniProt P06804 89-235).
T1 construct: also called murine TNFα; trimer-compound complex
T1 sequence: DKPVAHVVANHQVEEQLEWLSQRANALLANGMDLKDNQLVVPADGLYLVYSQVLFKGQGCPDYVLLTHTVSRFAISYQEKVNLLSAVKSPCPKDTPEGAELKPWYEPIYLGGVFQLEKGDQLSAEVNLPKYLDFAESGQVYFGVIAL
As to the kind of experiment: X-ray crystallography, 3.15 Å. The protocol: The final purified ternary complex was concentrated to 18.5 mg/ml and immediately used in crystallization trials.
The ternary complex was crystallized by sitting drop vapor diffusion by mixing 0.5 μl of complex with 0.5 μl of 800 mM sodium potassium tartrate, 0.5% PEG5000 MME, 100 mM Tris pH 8.5 over 100 μl of the same crystallization solution. Crystals were harvested for data collection approximately 2 months after initial set up. They were briefly soaked in paraffin oil and frozen directly in liquid nitrogen for data collection on Aug. 17, 2012 at Argonne Photon Source, beamline 21-IDF.

Assay [4] has as its target T2, fused human TNFα trimer in complex with compound (5) (human, UniProt P01375 77-233; P01375 86-233; P01375 86-233, limits assumed).
T2 construct: also called trimer-compound complex
As to the kind of experiment: analytical SEC (Superdex 200HR 10/300), Abs 280 nm against retention (CV); 3.5 fold excess of TNFR1 over trimer preincubated with 200 µM compound (5). The protocol:
The final concentration of DMSO was 1.0%. The mixture was incubated for 1 hour at 22° C.

In assay [5] the target is T3, fused human TNFα trimer in complex with compound (2) (human, UniProt P01375 77-233; P01375 86-233; P01375 86-233, limits assumed).
T3 construct: also called trimer-compound complex; compound-trimer complex
Nature of the assay: analytical SEC (HPLC, TSK G3000SW), Abs 280 nm against retention time; 3.2 fold excess of TNFR1 over fused TNFα trimer preincubated with 90, 240, 465 or 690 µM compound (2) [D00007 Fig. 5(Cont.]. As to the method:
The final concentration of DMSO was 0.25%. The mixture was incubated for 1 hour at 22° C.

T2 sequence (P01375 other isoform, or with tags, fused parts or gaps limits assumed): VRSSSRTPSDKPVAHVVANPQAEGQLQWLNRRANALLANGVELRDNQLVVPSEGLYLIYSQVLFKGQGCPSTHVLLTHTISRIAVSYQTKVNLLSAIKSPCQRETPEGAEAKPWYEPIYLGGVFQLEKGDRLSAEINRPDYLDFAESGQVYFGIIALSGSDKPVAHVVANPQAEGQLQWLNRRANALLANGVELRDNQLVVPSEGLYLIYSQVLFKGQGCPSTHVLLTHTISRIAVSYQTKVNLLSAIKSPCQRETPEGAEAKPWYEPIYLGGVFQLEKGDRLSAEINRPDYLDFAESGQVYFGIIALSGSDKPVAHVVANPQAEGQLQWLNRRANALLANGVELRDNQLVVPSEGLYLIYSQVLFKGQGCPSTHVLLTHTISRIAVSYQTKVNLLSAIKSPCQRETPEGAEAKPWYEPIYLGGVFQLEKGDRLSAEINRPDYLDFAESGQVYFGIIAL
T3 sequence (P01375 other isoform, or with tags, fused parts or gaps limits assumed): as above

Turning to “TNFR1(ECD)-6xLysine-Human single chain Fc, Alexa Fluor 488 conjugated (from UniProt P19438 30-211) (Fc fusion)”, the maximal inhibition of FRET signal in assay [1] is 29%; in assay [2] it was 36%.

B1: extracellular domain of human TNFR1 (VC 5602) (receptor)
chain: GSVCPQGKYIHPQDNSICCTKCHKGTYLYNDCPGPGQDTDCRECESGSFTASENHLRHCLSCSKCRKEMGQVEISSCTVDRDTVCGCRKNQYRHYWSENLFQCFNCSLCLNGTVHLSCQEKQNTVCTCHAGFFLRENECVSSSN
notes: Expressed in baculovirus infected insect cells
With B1, in assay [3], the binding result was “binds”.

B2: Human TNFR1 (V43-N184)(N54D, C182S) (receptor, UniProt P19438 43-184, looked up)
chain: VCPQGKYIHPQDNSICCTKCHKGTYLYNDCPGPGQDTDCRECESGSFTASENHLRHCLSCSKCRKEMGQVEISSCTVDRDTVCGCRKNQYRHYWSENLFQCFNCSLCLNGTVHLSCQEKQNTVCTCHAGFFLRENECVSSSN
notes: also called receptor
In the case of B2, the binding result in assay [4] and in assay [5] was “binds” throughout.
